± gives the uncertainty stated by the source.
Assay: protein stability index of a GFP-peptide fusion (yeast GPS) (PSI 1-4); higher = more stable; sorted into four equal gates, so the index is relative within each strain
Settings: san1∆
Procedure, shortened: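 Mid-log yeast cultures in leucine-free medium, carrying a pooled plasmid library, were sorted into four equal gates by their GFP/Cherry fluorescence ratio. Each plasmid expressed Cherry along with GFP fused upstream of a tiled 17-residue yeast protein peptide. Plasmids recovered from each gate were PCR-amplified and Illumina-sequenced, with reads assigned to strains by barcodes. The protein stability index was obtained by summing each gate's read frequency weighted by its gate number.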
KLDENNAQLSCITKQDG [PUP2] showed a protein stability index of 3.11 ± 0.098.
In the case of KLDLFKYFTELSHYIRQ [MED1], the protein stability index is reported as 1.24 ± 0.17.
Work on KLDTEVKNTNANPVVAT [SWP82] yielded a protein stability index of 2.54 ± 0.08.
With KLHMGTEDVRLAPELNQ [RPL31B] the protein stability index was 2.86 ± 0.049.
With KLINIKKFDISNDNLDL [MED1] the protein stability index was 2.48 ± 0.15.
KLKNENTDLKDIIQGNP [PCI8] showed a protein stability index of 2.75 ± 0.14.
Work on KLLDNIQEYQLCDNFNH [COR1] yielded a protein stability index of 2.44 ± 0.086.
KLLKEKVKLFHGILDDL [MED2] showed a protein stability index of 3.09 ± 0.06.
KLLKGATLYIPKALRFD [FAS2] gave a protein stability index of 2.88 ± 0.13.
KLLLLRINSTDEDLHEF [SRB8] showed a protein stability index of 2.94 ± 0.18.
With KLNELDELILEAKERYT [NNF1] the protein stability index was 3.23 ± 0.058.
With KLNTFNLQTFTHEQWSN [SRP72] the protein stability index was 2.36 ± 0.076.
Work on KLNVDQFISSRQFEVKQ [POP1] yielded a protein stability index of 3.01 ± 0.041.
Work on KLQLSFVLQMVGKTAQS [SRP72] yielded a protein stability index of 1.42 ± 0.16.
For KLSDNISICMILCGIQE [YDL116W/NUP84], the protein stability index was 2.62 ± 0.12.
Sequence KLSDSKTSNIESVPIYS [BRR2] has a protein stability index of 2.33 ± 0.042.
Work on KLSKEERAARVAAKIAA [RPL5] yielded a protein stability index of 2.49 ± 0.2.
KLSKILRTEYGWDSLAS [SNU114] showed a protein stability index of 3.1 ± 0.21.
Sequence KLVRESELLGGTFKSTL [QCR2] has a protein stability index of 2.35 ± 0.093.
KLYFQLFLNTGCLSVLY [SRP68] showed a protein stability index of 1.19 ± 0.1.
KMIILDKLLKRLKEKGS [ISW2] gave a protein stability index of 1.35 ± 0.12.
With KMVIAELLPHYPFVTND [YJR042W/NUP85] the protein stability index was 2.87 ± 0.052.
KMVKAWNLNQFQIEADF [ASC1] showed a protein stability index of 2.58 ± 0.067.
For KNDSAEVRQETQPKAEA [NUT1], the protein stability index was 3.36 ± 0.055.
For KNDSLEKTINDLQRTQT [YIL149C/MLP2], the protein stability index was 2.82 ± 0.059.
For KNESATINEMMKHLGRS [FAS2], the protein stability index was 2.65 ± 0.062.
With KNGLGLNFSTTAPANTT [MED2] the protein stability index was 2.15 ± 0.072.
KNKPELYQIDYLGTKVE [PRE1] showed a protein stability index of 3.09 ± 0.064.
Work on KNLERLRGEYNDLQSET [SMC4] yielded a protein stability index of 3.25 ± 0.067.
With KNLSLQTGTKPVLKKKA [COR1] the protein stability index was 3.09 ± 0.06.
For KNMGLVPMKEENLEESF [SSN2], the protein stability index was 2.95 ± 0.17.
With KNPLFSYVEPVLVASAK [RPL31A] the protein stability index was 2.49 ± 0.066.
Sequence KNQLRDWIRFVSTKTNE [RPL22A] has a protein stability index of 2.17 ± 0.068.
Work on KNSDVWFLDHNYIENMN [RPN8] yielded a protein stability index of 2.57 ± 0.11.
KNSSTSNTEPIPRSNRH [MED1] showed a protein stability index of 2.91 ± 0.091.
With KNTIDFERFPSPSTSAN [RPN4] the protein stability index was 2.72 ± 0.082.
For KNTMFEKSDALVGVYRQ [SMC1], the protein stability index was 2.7 ± 0.081.
KNVETLEEKILAKKTHK [SMC4] gave a protein stability index of 2.79 ± 0.053.
KNVRFRVLQLLAVIMDN [YCG1] gave a protein stability index of 1.24 ± 0.099.
For KPDVTYADVGGLDMQKQ [RPT3], the protein stability index was 3.47 ± 0.24.
In the case of KPETPKGPIIISKNPSN [SIR2], the protein stability index is reported as 2.67 ± 0.06.
In the case of KPFLKGLVNHRVGVKLK [SMX3], the protein stability index is reported as 2.07 ± 0.052.
KPFRQTKFKVRGSSSLY [RPL38] gave a protein stability index of 3.17 ± 0.09.
Work on KPKMLPIPSKPTLFDLA [SRP68] yielded a protein stability index of 2.31 ± 0.099.
With KPLGPCDVFWVQKDTAI [POP1] the protein stability index was 2.89 ± 0.06.
KPPSSAFNFSFNTSRNV [YAR002W/NUP60] gave a protein stability index of 3.26 ± 0.045.
KPTDATGNTTSKSAFSF [YOR098C/NUP1] showed a protein stability index of 2.1 ± 0.12.
KPVYKGKKLTDEINTAQ [RET1] showed a protein stability index of 2.75 ± 0.084.
Work on KQANNFLWPFKLSNPSG [RPL7A] yielded a protein stability index of 3.09 ± 0.1.
For KQEIREAVELPLVQADL [RPT3], the protein stability index was 3.43 ± 0.12.
In the case of KQLIMESQEKYMEPFDL [NSL1], the protein stability index is reported as 3.32 ± 0.047.
In the case of KQNEQLHVEQLSGGQKT [SMC3], the protein stability index is reported as 2.19 ± 0.1.
Sequence KQQPTMQANKLDSQETP [SWI3] has a protein stability index of 2.92 ± 0.081.
In the case of KQTDTGITHFRAGMTHE [PRP8], the protein stability index is reported as 3.08 ± 0.057.
KQYLSASFSLKNGDKPH [RPL6A] showed a protein stability index of 2.43 ± 0.058.
With KRDQYLKSASKETAPVI [RPL28] the protein stability index was 2.59 ± 0.065.
Work on KRGEVVKIIRKSETSGR [RPB5] yielded a protein stability index of 3.2 ± 0.064.
For KRKTNIIMFVGLQGSGK [SRP54], the protein stability index was 3.09 ± 0.06.
KRNKYAAMLTSENAREI [RRP45] gave a protein stability index of 3.08 ± 0.057.
With KRNSDKVEYKIVHDDPA [ITC1] the protein stability index was 1.95 ± 0.13.
In the case of KRPPEIMSTEAHVNKVT [SIR4], the protein stability index is reported as 2.92 ± 0.1.
KRQFNNSYWLIILLGVL [ITC1] gave a protein stability index of 1.5 ± 0.1.
With KRQYVKQFLTKDLKFPL [RPL20A] the protein stability index was 2.76 ± 0.063.
KRRIEEEQEKINSAPDF [ISW2] gave a protein stability index of 2.98 ± 0.15.
KRVPNPNFLGNCNIKDF [SWP82] gave a protein stability index of 2 ± 0.056.
With KRYRLKESQLPRIQRAD [RPB5] the protein stability index was 3.02 ± 0.1.
With KSESDELQMRSFLKEGD [RRP4] the protein stability index was 3.09 ± 0.12.
For KSFISKLLGIGDIESLF [SRP54], the protein stability index was 2.2 ± 0.12.
With KSIDSKTPEEVEVYAKI [ISW2] the protein stability index was 2.88 ± 0.14.
Sequence KSITLKGRNNESNNKKY [YDL088C/ASM4] has a protein stability index of 3.13 ± 0.059.
Work on KSLAMEHKSQVVLYNYY [CSN12] yielded a protein stability index of 1.32 ± 0.11.
For KSLDSIPMSKTIKDLVG [FAS2], the protein stability index was 2.79 ± 0.13.
Work on KSLGGGAALKDIEIVRV [FAS2] yielded a protein stability index of 3.17 ± 0.088.
For KSLHEMNERDWRILKED [PRP28], the protein stability index was 3.33 ± 0.072.
Sequence KSMNKSAINQYNRRQDK [SNF2] has a protein stability index of 2.44 ± 0.058.
Work on KSRIVKVVGPRGTLTKN [RPL9A] yielded a protein stability index of 2.65 ± 0.052.
Work on KSTASTAAANTEKLSNG [YOR098C/NUP1] yielded a protein stability index of 3.1 ± 0.12.
Work on KSTTPYVSALKRINKFL [POP7] yielded a protein stability index of 2 ± 0.067.
KSVKFVQGLLQNAAANA [RPL17A] showed a protein stability index of 2.28 ± 0.05.
With KTEDPKGGIIASVGDIL [YML031W/NDC1] the protein stability index was 2.43 ± 0.046.
KTEPVGTGLQSYLEERE [RPC53] gave a protein stability index of 3.21 ± 0.12.
In the case of KTGTKPAAVFAETLKHD [RPL4B], the protein stability index is reported as 1.63 ± 0.16.
Work on KTLNLFKQIKSADCELL [RPO31] yielded a protein stability index of 1.23 ± 0.29.
Work on KTMKTFVIHIQEKNFQT [RPB5] yielded a protein stability index of 1.88 ± 0.14.
Sequence KTRNPLTHSTPKNFGIG [RPL8A] has a protein stability index of 2.95 ± 0.046.
For KTTITRVEPETFEIPQA [SWI3], the protein stability index was 2.84 ± 0.072.
Work on KTYNKLHYCVSCAIHAR [RPS26A] yielded a protein stability index of 1.31 ± 0.14.
Sequence KVAQLRQTGPAKINEVY [NSL1] has a protein stability index of 2.84 ± 0.1.
For KVFIRESLSLKNIHISK [YML103C/NUP188], the protein stability index was 2.01 ± 0.057.
In the case of KVIEEQLKHTKLALAEN [SMC4], the protein stability index is reported as 1.32 ± 0.15.
KVISEILTKEVQGSTLA [RPS1A] gave a protein stability index of 2.29 ± 0.03.
KVISEILTREVQNSTLA [RPS1B] gave a protein stability index of 2.64 ± 0.069.
For KVKAGVRSANEDGTFSV [RRP43], the protein stability index was 3.48 ± 0.061.
KVLAAHTKFEVAIGLNG [RRP40] gave a protein stability index of 2.34 ± 0.072.
Sequence KVLARQQLQVLARYLKM [FAS2] has a protein stability index of 1.75 ± 0.15.
KVLLDSKDVQQIDYKLE [RPS7A] showed a protein stability index of 3.31 ± 0.061.
For KVSDPYVPTRNTFNYDV [RPN4], the protein stability index was 1.8 ± 0.28.
KVSGVSLLALWKEKKEK [RPS23A] showed a protein stability index of 1.78 ± 0.1.
KVTEKVLTQLTALALKY [CSI1] showed a protein stability index of 2 ± 0.039.
Sequence KVVNGNSADAAYAQVEI [FAS2] has a protein stability index of 2.14 ± 0.068.
KWKPVLSHIVYFLVLSP [RPN5] gave a protein stability index of 1.2 ± 0.057.
KYDRILKEVPTYRYVSV [RPS25A] showed a protein stability index of 2.87 ± 0.22.

Reference: the supplement of paper PMC9732359
